The text below walks through data of publication PMC6975171, “Deep sequencing of mitochondrial DNA and characterization of a novel POLG mutation in a patient with arPEO”.

In series [1] the target is POLγA F197S;POLγB (Homo sapiens?;Homo sapiens?, UniProt P54098;Q9UHN1 26-1239;25-485, F197S|). Nature of the series: EMSA; 0.3 mM ddGTP, 3 mM dCTP; 10 fmol DNA in 15 µL; 25 mM Tris-HCl pH 7.8, 1 mM DTT, 0.1 mg/mL BSA, 10% glycerol, 0.3 mM ddGTP, 3 mM dCTP, no added Mg2+ stated; 10 min at ambient temperature; 6% native PAGE in 0.5x TBE. The settings on record: protein: recombinant;recombinant; tags: 6xHis;6xHis; copies: 1;2; label: 32P 5' end of the 21-nt primer (S1); 21 bp duplex, 5' overhang 15 nt on S2 (template strand), recessed primer 3' end. A general note: In EMSA bound probe runs differently from free probe, usually more slowly.
Chain of POLγA F197S;POLγB (P54098 26-1239 F197S, chain 1 of 2): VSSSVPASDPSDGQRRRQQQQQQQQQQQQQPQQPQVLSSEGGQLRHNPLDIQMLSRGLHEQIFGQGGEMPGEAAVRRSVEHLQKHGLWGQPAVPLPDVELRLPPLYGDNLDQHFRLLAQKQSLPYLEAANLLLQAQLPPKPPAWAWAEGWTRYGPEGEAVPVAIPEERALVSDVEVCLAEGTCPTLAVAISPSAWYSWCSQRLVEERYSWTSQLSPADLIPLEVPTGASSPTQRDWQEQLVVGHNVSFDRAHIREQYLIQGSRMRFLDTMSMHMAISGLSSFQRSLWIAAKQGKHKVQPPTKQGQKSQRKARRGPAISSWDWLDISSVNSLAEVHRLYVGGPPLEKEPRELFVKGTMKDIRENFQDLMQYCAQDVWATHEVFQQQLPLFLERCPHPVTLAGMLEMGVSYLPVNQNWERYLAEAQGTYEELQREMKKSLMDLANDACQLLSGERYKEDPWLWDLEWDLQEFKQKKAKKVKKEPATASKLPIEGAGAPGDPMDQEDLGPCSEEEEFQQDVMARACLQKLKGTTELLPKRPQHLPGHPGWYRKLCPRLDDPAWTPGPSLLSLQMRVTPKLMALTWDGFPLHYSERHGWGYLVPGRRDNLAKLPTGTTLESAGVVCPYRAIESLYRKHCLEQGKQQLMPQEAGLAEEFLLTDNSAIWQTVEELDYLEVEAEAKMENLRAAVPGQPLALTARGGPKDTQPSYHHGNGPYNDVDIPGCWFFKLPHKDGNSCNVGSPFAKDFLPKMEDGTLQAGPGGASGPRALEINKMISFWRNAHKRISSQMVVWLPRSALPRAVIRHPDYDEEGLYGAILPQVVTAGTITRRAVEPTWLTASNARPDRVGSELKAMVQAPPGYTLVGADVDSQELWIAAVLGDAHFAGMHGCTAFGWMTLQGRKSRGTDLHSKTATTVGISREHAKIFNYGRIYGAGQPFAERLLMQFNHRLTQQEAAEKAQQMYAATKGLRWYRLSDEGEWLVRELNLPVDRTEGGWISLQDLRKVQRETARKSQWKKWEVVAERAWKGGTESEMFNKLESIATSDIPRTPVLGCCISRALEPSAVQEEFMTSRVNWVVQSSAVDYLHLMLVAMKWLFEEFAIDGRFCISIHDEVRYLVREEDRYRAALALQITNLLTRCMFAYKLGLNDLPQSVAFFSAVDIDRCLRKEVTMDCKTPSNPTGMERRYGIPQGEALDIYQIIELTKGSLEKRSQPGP
Chain of POLγA F197S;POLγB (Q9UHN1 25-485, chain 2 of 2): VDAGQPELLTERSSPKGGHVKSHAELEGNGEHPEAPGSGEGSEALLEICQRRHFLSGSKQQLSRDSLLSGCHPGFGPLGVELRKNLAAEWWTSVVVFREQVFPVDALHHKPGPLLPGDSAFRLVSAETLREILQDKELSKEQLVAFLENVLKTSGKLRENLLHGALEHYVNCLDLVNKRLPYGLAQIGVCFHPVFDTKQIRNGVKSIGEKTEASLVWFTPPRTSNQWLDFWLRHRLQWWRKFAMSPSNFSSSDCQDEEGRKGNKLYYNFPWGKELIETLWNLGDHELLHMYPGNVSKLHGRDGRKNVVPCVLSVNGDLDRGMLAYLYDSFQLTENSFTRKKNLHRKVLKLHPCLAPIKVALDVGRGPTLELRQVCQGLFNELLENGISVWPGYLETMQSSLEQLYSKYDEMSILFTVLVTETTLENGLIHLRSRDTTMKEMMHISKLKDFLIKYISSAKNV

In series [2] the target is POLγA WT;POLγB (Homo sapiens?;Homo sapiens?, UniProt P54098;Q9UHN1 26-1239;25-485, |). Described as above. The settings on record: protein: recombinant;recombinant; tags: 6xHis;6xHis; copies: 1;2; label: 32P 5' end of the 21-nt primer (S1); 21 bp duplex, 5' overhang 15 nt on S2 (template strand), recessed primer 3' end.
Chain of POLγA WT;POLγB (P54098 26-1239, chain 1 of 2): as the sequence (P54098 26-1239 F197S, chain 1 of 2) above, with S172F counted along it
Chain of POLγA WT;POLγB (Q9UHN1 25-485, chain 2 of 2): as the sequence (Q9UHN1 25-485, chain 2 of 2) above

B1: 21/36-nt primed template (dsDNA)
DNA 1: GCGGTCGAGTCTAGAGGAGCC
DNA 2: GACTACGTCTATCCGGGCTCCTCTAGACTCGACCGC
As for B1, the binding result in series [1] and in series [2] was “binds” each time.
